Article PMC6514982, “Disruption of Structural Disulfides of Coagulation FXIII-B Subunit; Functional Implications for a Rare Bleeding Disorder” (International Journal of Molecular Sciences, 2019)

Target: the molecule itself
Test: native gel or EMSA; non-denaturing Native-PAGE (BN sample buffer), transfer to PVDF, Western blot with mouse anti-human FXIII-B antibody

B1: recombinant wild type FXIII-B subunit (coagulation Factor XIII B subunit) (natural protein, human, UniProt P05160 21-661, looked up)
chain: EEKPCGFPHVENGRIAQYYYTFKSFYFPMSIDKKLSFFCLAGYTTESGRQEEQTTCTTEGWSPEPRCFKKCTKPDLSNGYISDVKLLYKIQENMRYGCASGYKTTGGKDEEVVQCLSDGWSSQPTCRKEHETCLAPELYNGNYSTTQKTFKVKDKVQYECATGYYTAGGKKTEEVECLTYGWSLTPKCTKLKCSSLRLIENGYFHPVKQTYEEGDVVQFFCHENYYLSGSDLIQCYNFGWYPESPVCEGRRNRCPPPPLPINSKIQTHSTTYRHGEIVHIECELNFEIHGSAEIRCEDGKWTEPPKCIEGQEKVACEEPPFIENGAANLHSKIYYNGDKVTYACKSGYLLHGSNEITCNRGKWTLPPECVENNENCKHPPVVMNGAVADGILASYATGSSVEYRCNEYYLLRGSKISRCEQGKWSSPPVCLEPCTVNVDYMNRNNIEMKWKYEGKVLHGDLIDFVCKQGYDLSPLTPLSELSVQCNRGEVKYPLCTRKESKGMCTSPPLIKHGVIISSTVDTYENGSSVEYRCFDHHFLEGSREAYCLDGMWTTPPLCLEPCTLSFTEMEKNNLLLKWDFDNRPHILHGEYIEFICRGDTYPAELYITGSILRMQCDRGQLKYPRCIPRQSTLSYQEPLRT
notes: Coagulation factor XIII B chain, human; F13B cDNA (ORF length 1986 bp) in the pEZ-M01 vector; The whole ORF was expressed; the secreted product was analysed; also called rFXIII-B; rFXIII-B2; source: HEK293T, transiently transfected, secreted into the culture medium
**Q.** B1 was tested. Which “stoichiometry N” value did it give?
**A.** 2
